Patent US20060233704A1, “Prochelator for the preparation of radiometal labeled molecules having improved biological properties” (priority 2000, published 2006)

Assay type: physicochemical
Procedure: In addition, the stability is higher. The reaction of ^90Y-DOTATOC or ^90Y-DOTAGA at 37° C. with the chelator DTPA results in ^90Y-DTPA.

Question: For `C[C@@H](O)[C@@H]1NC(=O)[C@H](CCCCN)NC(=O)[C@@H](Cc2c[nH]c3ccccc23)NC(=O)[C@H](Cc2ccc(O)cc2)NC(=O)[C@@H](NC(=O)[C@@H](Cc2ccccc2)NC(=O)CCC(C(=O)O)N2CCN(CC(=O)O)CCN(CC(=O)O)CCN(CC(=O)O)CC2)CSSC[C@@H](C(=O)N[C@H](CO)[C@@H](C)O)NC1=O` (single isomer, unassigned) [DOTAGA], which half-life is on record?
Answer: Its half-life is 79 h.
